From US20250129146A1, “COMBINED CANCER THERAPY WITH AN EPITHELIAL CELL ADHESION MOLECULE (EPCAM) INHIBITOR AND A WNT INHIBITOR” (ACADEMIA SINICA, priority 2021, published 2025)
Entries after “also recorded” stand apart in the source; their conditions may differ.

Key:
[1] = system: colon cancer cells (SW620, HCT116); settings: general description of other anti-EpCAM antibodies; cited from earlier work
[2] = system: TACE; experiment: TACE activity assay; format: cell-based, human; settings: HCT116 and HT29 cells; 250 ng/mL EpEX-His or 100 ng/mL Wnt3A for 8 h, or combination
Method: Cells were seeded overnight in 24-well plate ([…] cells per well) and further treated with 250 ng/mL EpEX-His or 100 ng/mL Wnt3A (R&D Systems) for 8 h. Then, TACE activity was measured using the InnoZyme TACE activity kit (Merck). In brief, cell lysates were prepared with RIPA buffer and loaded into a TACE antibody-coated plate and incubated at RT for 1 h with slight shaking. Further, the lysates were removed and the plate was washed three times. Substrate was added into each well and incubated for 5 h at 37° C. Finally, the fluorescence signal of the reaction product was detected at excitation of 324 nm and emission of 405 nm using a microplate reader.

[3] = system: HCT116 cells; experiment: Metastatic animal model of human CRC (HCT116 cells via tail vein); format: in vivo, NOD/SCID mice
Method: (§1) All animal experiments were approved and performed according to the regulations from the IACUC at Academia Sinica. HCT116 cells (1×10^6) were injected via tail vein for the metastatic model. Otherwise, 2×10^5 HCT116 cells with luciferase were surgically transplanted into the cecum wall for the orthotopic model. Male NOD/SCID mice, approximately 6 to 8 weeks old, were used for animal experiments (n=5 and n=6 for each treatment group in metastatic and orthotopic models respectively). At 72-h post-injection/transplantation, mice were randomly distributed into four different treatment groups. For the treatments, animals were injected with 20 mg/kg IgG or EpAb2-6 via tail vein twice a week for four weeks, or fed by oral gavage with either vehicle [0.5% methylcellulose (Sigma-Aldrich) and 0.5% Tween80 (Sigma-Aldrich)] or 5 mg/kg LGK974 (MedChemExpress) formulated with the vehicle on alternating days for four weeks, or animals were treated with the combination of both inhibitor and antibody. For the metastatic model, survival was the main endpoint. For the orthotopic model, tumor progression was monitor using bioluminescence imaging. To image the tumors, intraperitoneal injection of D-Luciferin (GOLD BIO) was performed, and images were taken 10 min post-injection.

[4] = system: HCT116 cells; experiment: Orthotopic animal model of human CRC (HCT116 cells with luciferase in cecum wall); format: in vivo, NOD/SCID mice; settings: orthotopic model
Method: as §1

[5] = target: T1, recombinant FZD6 (Homo sapiens, UniProt O60353); experiment: ELISA of EpEX binding to Wnt receptor-coated plates (FZD6); settings: EpEX-His alone, 2 hours; optical density at 450 nm
T1 construct: purchased Proteintech
T1 sequence (O60353 19-706): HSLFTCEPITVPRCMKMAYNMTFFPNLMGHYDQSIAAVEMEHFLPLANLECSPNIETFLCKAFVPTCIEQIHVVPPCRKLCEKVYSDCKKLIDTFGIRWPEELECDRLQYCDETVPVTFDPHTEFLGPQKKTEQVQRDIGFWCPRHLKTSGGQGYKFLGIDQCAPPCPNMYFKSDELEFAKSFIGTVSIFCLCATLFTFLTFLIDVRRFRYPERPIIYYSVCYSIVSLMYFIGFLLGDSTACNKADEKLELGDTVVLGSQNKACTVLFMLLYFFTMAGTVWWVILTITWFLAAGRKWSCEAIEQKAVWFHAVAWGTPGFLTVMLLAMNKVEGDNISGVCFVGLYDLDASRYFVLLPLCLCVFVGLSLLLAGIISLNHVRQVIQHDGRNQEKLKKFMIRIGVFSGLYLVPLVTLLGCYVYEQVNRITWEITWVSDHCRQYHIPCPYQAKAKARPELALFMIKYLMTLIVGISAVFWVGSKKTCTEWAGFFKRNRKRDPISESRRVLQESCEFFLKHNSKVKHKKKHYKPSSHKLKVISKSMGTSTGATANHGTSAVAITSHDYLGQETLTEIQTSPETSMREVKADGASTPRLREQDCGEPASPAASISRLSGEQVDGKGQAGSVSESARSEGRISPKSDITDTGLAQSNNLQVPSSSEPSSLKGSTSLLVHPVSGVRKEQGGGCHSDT
Method: (§2) For ELISA, wells (at least 6 wells per single protein) were coated with recombinant FZD6 (Proteintech), recombinant FZD7 (Proteintech), recombinant LRP5 (Proteintech), recombinant LRP6 (Proteintech) overnight at 4° C. The wells were then blocked with 1% BSA and treated with EpEX-his (Produced in house by Expi293 Expression System) for 2 hours. Otherwise, EpEX-His was incubated with EpAb2-6 overnight and the complex was used to treat the protein-coated plates for 2 hours. Further anti-His antibody (abeam) was used and TMB was performed to record optical density at 450 nm.

[6] = target: T2, recombinant LRP6 (Homo sapiens, UniProt O75581); experiment: ELISA of EpEX binding to Wnt receptor-coated plates (LRP6); settings: EpEX-His alone, 2 hours; optical density at 450 nm
T2 construct: purchased Proteintech
Method: as §2

[7] = 20 mg/kg EpAb2-6 via tail vein twice a week, 5 mg/kg LGK974 oral gavage on alternating days, four weeks

T2 sequence (O75581 20-1613): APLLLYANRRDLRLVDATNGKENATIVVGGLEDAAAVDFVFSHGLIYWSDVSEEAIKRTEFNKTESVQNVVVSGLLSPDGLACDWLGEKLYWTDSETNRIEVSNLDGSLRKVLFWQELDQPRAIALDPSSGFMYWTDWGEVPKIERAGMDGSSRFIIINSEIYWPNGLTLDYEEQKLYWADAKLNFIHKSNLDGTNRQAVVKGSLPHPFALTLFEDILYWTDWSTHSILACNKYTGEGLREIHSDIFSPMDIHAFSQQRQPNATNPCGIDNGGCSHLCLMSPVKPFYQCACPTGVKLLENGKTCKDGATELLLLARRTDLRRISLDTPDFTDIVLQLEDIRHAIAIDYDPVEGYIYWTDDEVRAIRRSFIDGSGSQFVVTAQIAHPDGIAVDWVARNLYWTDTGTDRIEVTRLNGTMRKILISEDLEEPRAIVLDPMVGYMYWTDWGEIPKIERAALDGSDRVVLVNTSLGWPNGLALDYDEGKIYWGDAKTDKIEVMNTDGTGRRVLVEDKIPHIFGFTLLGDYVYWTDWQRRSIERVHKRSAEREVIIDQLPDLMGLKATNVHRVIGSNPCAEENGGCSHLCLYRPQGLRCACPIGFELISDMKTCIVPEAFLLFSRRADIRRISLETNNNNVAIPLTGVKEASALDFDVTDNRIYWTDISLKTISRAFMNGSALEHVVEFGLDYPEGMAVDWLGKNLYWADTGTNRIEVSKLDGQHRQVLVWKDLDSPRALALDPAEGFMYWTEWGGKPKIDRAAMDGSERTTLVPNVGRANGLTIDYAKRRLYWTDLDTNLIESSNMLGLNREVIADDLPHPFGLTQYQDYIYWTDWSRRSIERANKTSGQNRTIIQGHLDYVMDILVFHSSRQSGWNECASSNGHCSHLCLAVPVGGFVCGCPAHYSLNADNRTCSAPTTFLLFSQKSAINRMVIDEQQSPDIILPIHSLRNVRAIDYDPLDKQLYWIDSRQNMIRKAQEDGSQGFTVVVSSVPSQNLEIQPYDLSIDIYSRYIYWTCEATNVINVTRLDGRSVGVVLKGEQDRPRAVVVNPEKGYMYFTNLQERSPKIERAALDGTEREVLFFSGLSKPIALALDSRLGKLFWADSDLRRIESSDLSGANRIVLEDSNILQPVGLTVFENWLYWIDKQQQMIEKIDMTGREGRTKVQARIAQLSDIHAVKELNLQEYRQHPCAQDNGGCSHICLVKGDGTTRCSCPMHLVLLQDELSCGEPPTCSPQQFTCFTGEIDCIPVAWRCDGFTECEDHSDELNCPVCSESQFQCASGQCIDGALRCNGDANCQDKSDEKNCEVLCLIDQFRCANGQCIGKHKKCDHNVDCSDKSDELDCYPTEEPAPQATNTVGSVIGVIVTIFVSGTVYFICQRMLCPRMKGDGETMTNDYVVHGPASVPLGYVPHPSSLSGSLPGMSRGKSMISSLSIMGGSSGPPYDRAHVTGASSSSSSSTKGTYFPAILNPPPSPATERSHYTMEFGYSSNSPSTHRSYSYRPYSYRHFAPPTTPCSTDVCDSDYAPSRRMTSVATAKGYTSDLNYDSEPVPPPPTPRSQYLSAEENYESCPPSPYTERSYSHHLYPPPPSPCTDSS

MT201: adecatumumab, a human anti-EpCAM antibody that was subjected to clinical trials [reference compound]
inducing apoptosis of cancer cells [1]: failing

B1: Wnt3A: recombinant Wnt3A (R & D systems) (protein, UniProt P56704 19-352, looked up)
Protein Wnt-3a: SYPIWWSLAVGPQYSSLGSQPILCASIPGLVPKQLRFCRNYVEIMPSVAEGIKIGIQECQHQFRGRRWNCTTVHDSLAIFGPVLDKATRESAFVHAIASAGVAFAVTRSCAEGTAAICGCSSRHQGSPGKGWKWGGCSEDIEFGGMVSREFADARENRPDARSAMNRHNNEAGRQAIASHMHLKCKCHGLSGSCEVKTCWWSQPDFRAIGDFLKDKYDSASEMVVEKHRESRGWVETLRPRYTYFKVPTERDLVYYEASPNFCEPNPETGSFGTRDRTCNVSSHGIDGCDLLCCGRGHNARAERRREKCRCVFHWCCYVSCQECTRVYDVHTCK
TACE activity [2]: enhanced

B2: EpAb2-6: anti-EpCAM (EpEX) neutralizing monoclonal antibody produced in mice by hybridoma; VH SEQ ID NO: 15, VL SEQ ID NO: 16 (antibody, V domains shown)
VH: VKLQESGPELKKPGETVKISCKASGYTFTDYSMHWVKQAPGKGLKWMGWINTETGEPTYADDFKGRFAFSLETSASTAYLQINNLKNEDTATYFCARTAVYWGQGTTVTVSS
VL: DIQMTQSPSSLSASLGERVSLTCRASQEISVSLSWLQQEPDGTIKRLIYATSTLDSGVPKRFSGSRSGSDYSLTISSLESEDFVDYYCLQYASYPWTFGGGTKLEIK
animal survival [3, 7]: can prolong animal survival; also recorded: could prolong animal survival | mice died by the end of the study ([3]; n=5 per group): 2 out of 5 | median / overall survival [4]: relatively higher median survival | tumor progression (bioluminescence) [4, 7]: much slower tumor progression

B3: EpEX: extracellular domain of EpCAM, produced in house by Expi293 Expression System (protein)
chain: QEECVCENYKLAVNCFVNNNRQCQCTSVGAQNTVICSKLAAKCLVMKAEMNGSKLGRRAKPEGALQNNDGLYDPDCDESGLFKAKQCNGTSMCWCVNTAGVRRTDKDTEITCSERVRTYWIIIELKHKAREKPYDSKSLRTALQKEITTRYQLDPKFITSILYENNVITIDLVQNSSQKTQNDVDIADVAYYFEKDVKGESLFHSKKMDLTVNGEQLDLDPGQTLIYYVDEKAPEFSMQGLKAGVIAVIVVVVIAVVAGIVVLVISRKKRMAKYEKAEIKEMGEMHRELNA
EpEX binding to FZD6 [5]: bind with all receptor proteins | EpEX binding to LRP6 [6]: bind with all receptor proteins | TACE activity [2]: enhanced
